Experimental data as given in publication PMC3082741 (Chemistry & biology, 2011).
“And” between values parts separate entries of the source, which are not always exact repeats. Equal entries are not always repeated.

B1: AcrB^S1043C biotinylated at C1043 (Cys1043^bio), the immobilized AcrB (natural protein)
chain: MPNFFIDRPIFAWVIAIIIMLAGGLAILKLPVAQYPTIAPPAVTISASYPGADAKTVQDTVTQVIEQNMNGIDNLMYMSSNSDSTGTVQITLTFESGTDADIAQVQVQNKLQLAMPLLPQEVQQQGVSVEKSSSSFLMVVGVINTDGTMTQEDISDYVAANMKDAISRTSGVGDVQLFGSQYAMRIWMNPNELNKFQLTPVDVITAIKAQNAQVAAGQLGGTPPVKGQQLNASIIAQTRLTSTEEFGKILLKVNQDGSRVLLRDVAKIELGGENYDIIAEFNGQPASGLGIKLATGANALDTAAAIRAELAKMEPFFPSGLKIVYPYDTTPFVKISIHEVVKTLVEAIILVFLVMYLFLQNFRATLIPTIAVPVVLLGTFAVLAAFGFSINTLTMFGMVLAIGLLVDDAIVVVENVERVMAEEGLPPKEATRKSMGQIQGALVGIAMVLSAVFVPMAFFGGSTGAIYRQFSITIVSAMALSVLVALILTPALSATMLKPIAKGDHGEGKKGFFGWFNRMFEKSTHHYTDSVGGILRSTGRYLVLYLIIVVGMAYLFVRLPSSFLPDEDQGVFMTMVQLPAGATQERTQKVLNEVTHYYLTKEKNNVESVFAVNGFGFAGRGQNTGIAFVSLKDWADRPGEENKVEAITMRATRAFSQIKDAMVFAFNLPAIVELGTATGFDFELIDQAGLGHEKLTQARNQLLAEAAKHPDMLTSVRPNGLEDTPQFKIDIDQEKAQALGVSINDINTTLGAAWGGSYVNDFIDRGRVKKVYVMSEAKYRMLPDDIGDWYVRAADGQMVPFSAFSSSRWEYGSPRLERYNGLPSMEILGQAAPGKSTGEAMELMEQLASKLPTGVGYDWTGMSYQERLSGNQAPSLYAISLIVVFLSLAALYESWSIPFSVMLVVPLGVIGALLAATFRGLTNDVYFQVGLLTTIGLSAKNAILIVEFAKDLMDKEGKGLIEATLDAVRMRLRPILMTSLAFILGVMPLVISTGAGSGAQNAVGTGVMGGMVTATVLAIFFVPVFFVVVRRRFSRKNEDIEHCHTVDHH
modifications: maleimide-PEG2-biotin on C1043
B2: AcrA^l, native lipid-modified AcrA (natural protein)
chain: CDDKQAQQGGQQMPAVGVVTVKTEPLQITTELPGRTSAYRIAEVRPQVSGIILKRNFKEGSDIEAGVSLYQIDPATYQATYDSAKGDLAKAQAAANIAQLTVNRYQKLLGTQYISKQEYDQALADAQQANAAVTAAKAAVETARINLAYTKVTSPISGRIGKSNVTEGALVQNGQATALATVQQLDPIYVDVTQSSNDFLRLKQELANGTLKQENGKAKVSLITSDGIKFPQDGTLEFSDVTVDQTTGSITLRAIFPNPDHTLLPGMFVRARLEEGLNPNAILVPQQGVTRTPRGDATVLVVGADDKVETRPIVASQAIGDKWLVTEGLKAGDRVVISGLQKVRPGVQVKAQEVTADNNQQAASGAQPEQSKS
modifications: N-terminal lipid modification at C25
B3: AcrA^G363C, lipid-modified AcrA with the G363C substitution in the MP domain (natural protein)
chain: CDDKQAQQGGQQMPAVGVVTVKTEPLQITTELPGRTSAYRIAEVRPQVSGIILKRNFKEGSDIEAGVSLYQIDPATYQATYDSAKGDLAKAQAAANIAQLTVNRYQKLLGTQYISKQEYDQALADAQQANAAVTAAKAAVETARINLAYTKVTSPISGRIGKSNVTEGALVQNGQATALATVQQLDPIYVDVTQSSNDFLRLKQELANGTLKQENGKAKVSLITSDGIKFPQDGTLEFSDVTVDQTTGSITLRAIFPNPDHTLLPGMFVRARLEEGLNPNAILVPQQGVTRTPRGDATVLVVGADDKVETRPIVASQAIGDKWLVTEGLKAGDRVVISCLQKVRPGVQVKAQEVTADNNQQAASGAQPEQSKS
modifications: N-terminal lipid modification at C25; disulfide bond between the two chains

Legend:
[1] = molecular target: AcrA^S362C modified with biotin-maleimide, the immobilized AcrA (E. coli) (UniProt P0AE06); test: SPR
SEC-MALS [2] = molecular target: the molecule itself; test: SEC-MALS
SEC-MALS [3] = molecular target: the molecule itself; test: SEC-MALS; remark: listed apart in the source
[4] = molecular target: the molecule itself; test: SDS-PAGE under reducing and non-reducing conditions

Molecule | KD1 (slow complexes, two populations of AcrA) [1] [µM] | KD2 (fast complexes, two populations of AcrA) [1] [µM] | further results
TolC, outer membrane channel (from UniProt P02930 23-493) (natural protein) | 0.01 | 0.11 | 
TolC^YFRE, TolC mutant containing Y362F and R367E substitutions (open variant) (from UniProt P02930 23-493) (natural protein) | 0.02 | 6.7 | 
B1 |  |  | stoichiometry N (SEC-MALS [2]): 2 and 3
B2 |  |  | stoichiometry N (SEC-MALS [3]): 2
B3 |  |  | stoichiometry N [4]: 2
